Results on five substances are retold here after publication PMC10538664.

This assay addresses prototype SARS-CoV-2 tandem RBD homotrimer (PPP) (SARS-CoV-2) (UniProt P0DTC2). The assay is described as follows: SPR.

REGN10933: the dissociation constant Kd was determined as 5.4 nM.

As to S309, the equilibrium dissociation constant (Kd) was 0.4 nM.

The substance C022 gave a Kd of 1.8 nM.

For CR3022, the Kd is 80.6 nM.

CV07-270 showed a Kd of 11.7 nM.
